Article PMC10071571, “Site‐directed mutagenesis improves the practical application of L‐glutamic acid decarboxylase in Escherichia coli” (Engineering in Life Sciences, 2023)

B1: Gad B (Escherichia coli K-12) (protein)
chain: MDKKQVTDLRSELLDSRFGAKSISTIAESKRFPLHEMRDDVAFQIINDELYLDGNARQNLATFCQTWDDENVHKLMDLSINKNWIDKEEYPQSAAIDLRCVNMVADLWHAPAPKNGQAVGTNTIGSSEACMLGGMAMKWRWRKRMEAAGKPTDKPNLVCGPVQICWHKFARYWDVELREIPMRPGQLFMDPKRMIEACDENTIGVVPTFGVTYTGNYEFPQPLHDALDKFQADTGIDIDMHIDAASGGFLAPFVAPDIVWDFRLPRVKSISASGHKFGLAPLGCGWVIWRDEEALPQELVFNVDYLGGQIGTFAINFSRPAGQVIAQYYEFLRLGREGYTKVQNASYQVAAYLADEIAKLGPYEFICTGRPDEGIPAVCFKLKDGEDPGYTLYDLSERLRLRGWQVPAFTLGGEATDIVVMRIMCRRGFEMDFAELLLEDYKASLKYLSDHPKLQGIAQQNSFKHT
notes: full length (1401 bp), pET-30a(+) His tag, expressed in E. coli BL21(DE3), Ni-NTA purified; about 53 kDa on SDS-PAGE; homo-hexamer

Legend:
N[C@@H](CCC(=O)O)C(=O)O = test system: T1, N[C@@H](CCC(=O)O)C(=O)O; test: HPLC of GABA formed; Lineweaver-Burk plot; type: biochemical, Escherichia coli; settings: substrate buffer with 0.05 mM PLP, phosphate buffer, 30 min, pH and temperature of the kinetics not given (optimum pH 4.3, 37 °C)
T1 construct: full length (1401 bp), pET-30a(+) His tag, expressed in E. coli BL21(DE3), Ni-NTA purified; about 53 kDa on SDS-PAGE; homo-hexamer
From the text: (§1) HPLC of GABA formed; Lineweaver-Burk plot on Gad B

Gad B = target: T2, Gad B (Escherichia coli, UniProt P69910); test: GABA formation at varied PLP concentration (HPLC); type: biochemical; settings: coenzyme added to L-glutamate reaction; no constant
T2 construct: gene gadB; full length (1401 bp), pET-30a(+) His tag, expressed in E. coli BL21(DE3), Ni-NTA purified; about 53 kDa on SDS-PAGE; homo-hexamer
T2 sequence (P69910 1-466): B1 chain

[1] = substrate: N[C@@H](CCC(=O)O)C(=O)O; test: HPLC of GABA formed; Lineweaver-Burk plot; type: biochemical, Escherichia coli; settings: substrate buffer with 0.05 mM PLP, phosphate buffer, 30 min, pH and temperature of the kinetics not given (optimum pH 4.3, 37 °C)
From the text: as §1

Molecule	Km (N[C@@H](CCC(=O)O)C(=O)O)	Vmax (N[C@@H](CCC(=O)O)C(=O)O)	GABA formation at varied PLP concentration (HPLC) (Gad B)	Km [1]	Vmax [1]
Gad B (Escherichia coli K-12; T62S)	7.3 ± 2.5 mM	76.1 µmol/min/mg	–	–	–
Gad B (Escherichia coli K-12; Q309A)	7.2 ± 3.8 mM	87.3 µmol/min/mg	–	–	–
Cc1ncc(COP(=O)(O)O)c(C=O)c1O [PLP]	–	–	enzyme activity of wild‐type Gad B and Gad B‐T62S mutants was highest when using the coenzyme PLP	–	–
B1	–	–	–	11.3 ± 2.1 mM	32.1 µmol/min/mg
